# From patent US20140147439A1 (NVIP, published 2014)
# B1: felinised anti-NGF monoclonal antibody (heavy chain SEQ ID NO:6, light chain SEQ ID NO:5) (antibody, IgG2)
# heavy: QVQLVESGGDLVQPGGSLRLTCAASGFSLTNNNVNWVRQAPGKGLEWMGGVWAGGATDYNSALKGRFTISRDNAKNTLYLQMNSLKTEDTATYYCARDGGYSSSTLYAMDAWGQGTLVTVSSASTTAPSVFPLAPSCGTTSGATVALACLVLGYFPEPVTVSWNSGALTSGVHTFPAVLQASGLYSLSSMVTVPSSRWLSDTFTCNVAHPPSNTKVDKTVRKTDHPPGPKPCDCPKCPPPEMLGGPSIFIFPPKPKDTLSISRTPEVTCLVVDLGPDDSDVQITWFVDNTQVYTAKTSPREEQFNSTYRVVSVLPILHQDWLKGKEFKCKVNSKSLPSPIERTISKAKGQPHEPQVYVLPPAQEELSRNKVSVTCLIKSFHPPDIAVEWEITGQPEPENNYRTTPPQLDSDGTYFVYSKLSVDRSHWQRGNTYTCSVSHEALHSHHTQKSLTQSPGK
# light: DIVMTQTPLSLSVTPGEPASISCRASEDIYNALAWYLQKPGQSPRRLIYNTDTLHTGVPDRFSGSGSGTDFTLRISRVEADDVGVYFCQHYFHYPRTFGPGTKLEIKRSDAQPSVFLFQPSLDELHTGSASIVCILNDFYPKEVNVKWKVDGVVQTKASKESTTEQNSKDSTYSLSSTLTMSRTEYQSHEKFSCEVTHKSLASTLVKSFNRSECQRE
# notes: Felinised alphaD11 variable domains with a feline HC2 (IgG2) heavy chain constant region and a feline kappa constant domain; also called felinised antibody; felinised anti-NGF MAb
# Molecular target: T1, human complement C1q (from human serum) (human, UniProt P02745 23-245; P02746 28-253; P02747 29-245)
# T1 construct: Native C1q in human serum diluted 1/100
# T1 sequence (P02745 23-245 limits assumed, chain 1 of 3): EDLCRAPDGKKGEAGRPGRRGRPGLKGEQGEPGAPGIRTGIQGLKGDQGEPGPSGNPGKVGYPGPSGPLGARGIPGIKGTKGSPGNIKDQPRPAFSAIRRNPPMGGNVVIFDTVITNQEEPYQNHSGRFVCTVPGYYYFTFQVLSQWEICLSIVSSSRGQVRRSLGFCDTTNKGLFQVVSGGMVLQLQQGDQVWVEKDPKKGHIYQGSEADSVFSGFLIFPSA
# T1 sequence (P02746 28-253 limits assumed, chain 2 of 3): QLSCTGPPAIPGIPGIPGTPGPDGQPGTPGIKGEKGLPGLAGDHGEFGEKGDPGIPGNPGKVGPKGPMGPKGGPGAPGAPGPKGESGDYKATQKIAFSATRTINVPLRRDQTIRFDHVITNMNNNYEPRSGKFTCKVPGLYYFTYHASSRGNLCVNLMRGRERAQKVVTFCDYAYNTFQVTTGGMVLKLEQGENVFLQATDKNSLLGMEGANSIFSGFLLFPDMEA
# T1 sequence (P02747 29-245 limits assumed, chain 3 of 3): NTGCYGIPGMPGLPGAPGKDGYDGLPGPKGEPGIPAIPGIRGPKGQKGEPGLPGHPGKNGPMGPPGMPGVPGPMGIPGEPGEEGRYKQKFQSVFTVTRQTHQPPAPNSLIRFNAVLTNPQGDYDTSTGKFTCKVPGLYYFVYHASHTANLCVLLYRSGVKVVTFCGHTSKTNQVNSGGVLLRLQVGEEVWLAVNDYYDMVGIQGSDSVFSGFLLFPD
# Experiment: ELISA: antibody captured on NGF-coated plate, incubated with human serum, bound C1q detected with sheep anti-C1q-HRP, absorbance at 450 nm
# Experimental: The plates were washed and then incubated with human serum and bound complement C1q was measured by binding of anti-human C1q polyclonal antibody HRP and developed as above.
# Plates were coated with 100 μl/well of 5 μg/ml mouse NGF and blocked with 5% BSA/PBS. […] The plates were washed and incubated for 1 hour at room temperature with 100 μl/well of human serum diluted 1/100 in veronal buffered saline containing 0.5 mM MgCl₂, 2 mM CaCl₂, 0.05% Tween-20, 0.1% gelatin and 0.5% BSA. After washing, plates were incubated with 100 μl of a 1/800 dilution of sheep anti-C1q-HRP (Serotec) in PBS/1% BSA. After washing, plates were developed by the addition of 100 μl TMB substrate (Thermo Scientific). Development was stopped by the addition of 100 μl of 2NH₂SO₄ and absorbance read at 450 nm.
binder,measurement,value
B1,binding result,no binding (tested: human serum diluted 1/100)
